From the nanobody polyreactivity screen of Harvey et al. (2022)

experiment: yeast display, Sf9 membrane polyspecificity reagent, FACS + sequencing; frameworks hold sequencing errors
Method in brief: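 Sorting gates, low and high (top ~1%), were placed on anti-HA fluorescence to track expression and on streptavidin fluorescence to track reagent binding. A clone's polyreactivity label is taken from the gate it came out of. The reagent was 10% biotinylated, detergent-solubilized Sf9 membrane, applied for 1 hour at 4 °C to galactose-induced yeast display cells.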

Question: Which “polyreactivity (PSR sort gate)” value does the source give for “QVQLVESGGGLVQAGGSLRLSCAASGSISNFYAMGWYRQAPGKEREFVAAISTRDGTKRFADSVKGRFTISRDNAKNTVYLQMNSLKPEDTAVYYCAAKGGGVWLYARIYSDYYWGQGTQVTVSS” here?
Answer: low polyreactivity

Question: For “QVQLVESGGALVQAGGSLRLSCAASGFIFPYYAMGWYRQAPGKERELVAAITFSATRTYYADSVKGRFTISRDNAKNTVYLQMNSLKPEDTAVYYCAVGSASSGYEYDYWGQGTQVTVSS”, which “polyreactivity (PSR sort gate)” value is on record?
Answer: low polyreactivity

Question: Which “polyreactivity (PSR sort gate)” value does the source give for “QVHLVESGGGLVQAGGSLRLSCAASGSIFTPYAMGWYRQAPGKERELVATISWSGGRTYYADSVKGRFTISRDNAKNTVYLQMNSLKPEDTAVYYCAARGYSSEYDYWGQGTQVTVSS” here?
Answer: high polyreactivity

Question: With “QVQLVESGGGLVQAGGSLRLSCPAYGSIFIGNAMGWYRQAPGKERELVAVISKGGGRTYYADSVKGRFTISRDNAKNTVYLQMNSLKPEDTAVYYCNTRNPDSGDYWGQGTQVTVSS” as the sequence, how does the “polyreactivity (PSR sort gate)” value read?
Answer: high polyreactivity

Question: Which “polyreactivity (PSR sort gate)” value does the source give for “QVQLVESGGGLVQAGGSLRLSCAASGSIFERYAMVWYRQAPGKERELVAAISWSGSSTYYADSVKGRFTISRDNAKNTVYLQMNSLKPEDTAVYYCNKVWIDTGMEYWGQGTQVTVSS” here?
Answer: low polyreactivity

Question: Which “polyreactivity (PSR sort gate)” value does the source give for “QVQLVESGGGLVQAGGSLRLSCAASGSIFTRYAMGWYRQSPGKERELVAALSYRGGRTYYADSVKGRFTISRDNAKNTVYLQMNSLKPVDTAVYYCAAGYRFSYSPNEFYYWGQGTQVTVSS” here?
Answer: high polyreactivity

Question: With “QVQLVESGGGLVQAGGSLRLSCAASGRTFVGYTMGWYRQAPGKERELVAAIDLSDGSTSYADSVKGRFTISRDNAKNTVYLQMNSLIPEDTAVYYCAKTWANVYAGAHDYWGLGTQVTVSS” as the sequence, how does the “polyreactivity (PSR sort gate)” value read?
Answer: low polyreactivity

Question: With “QVQLVESGGGLVQAGGSLRFSCAASGHIFFYYTMGWYRQAPGKERELVAGITQSGGNTYYADSVKGRFTISRDNAKNTVYLQMNSLKPEDTAVYYCAARIRGTWKYGYWGQGTQVTVSS” as the sequence, how does the “polyreactivity (PSR sort gate)” value read?
Answer: low polyreactivity

Question: For “QVQLVESGGGLVQAGGSLRLRCAASGRIFGRNAMGWYRQAPGKERELVAAISGGGSTNYADSVKGRFTISRDNAKNTVYLQMKSLKPADTAVYYCAVKQGFYSRALKLYYWGQGTQVTVSS”, which “polyreactivity (PSR sort gate)” value is on record?
Answer: high polyreactivity

Question: Which “polyreactivity (PSR sort gate)” value does the source give for “QVQLVESGGGLVQAGGSLRLSCAASGSIFPANAMGWYRQAPGKEWEFVAAINWSTGTTYYADSVKGRFTIARDNAKNTVYLQMNRLKPEETPVYYCNASDQAKYDYWGQGTQVTVSS” here?
Answer: low polyreactivity

Question: With “QVQLVESGGGLVQAGGSLRLSCAASGSIFGGYGMGWYRQAPGKERQLVAAITSGSSTYYADSVKGRFTISRDNAKNTVYLQMNSLKPEDTAVYYCAARPYPHSAYQGDYWGRGTQVTVSS” as the sequence, how does the “polyreactivity (PSR sort gate)” value read?
Answer: low polyreactivity

Question: For “QVQLVESGGGLVQAGGSLRLSCAASGFIFDPYAMGWYRQAPGKERELVARITWSGGRTYYADSVKGRFTISRDNAKNTVYLQMNSLKPEDTAVYYCNADVYGFDYWGQGTQVTVSS”, which “polyreactivity (PSR sort gate)” value is on record?
Answer: high polyreactivity

Question: With “QVQLVESGGGLVQAGGSLRLSCAASGSIFNLYAMGWYRQAPGKERELVAGIRWSGGRTYYADSVKGRFTISRDNAKNTVYLQMNSLKPEDTAVYYCNAVGYLSWWNDYDYWGQGTQVTVSS” as the sequence, how does the “polyreactivity (PSR sort gate)” value read?
Answer: high polyreactivity

Question: For “QVQLVESGGGLVQAGGSLRLSCAASGRSFYFNAMGWYRQAPGKEWELVAVINSSGSTDYADSVKGRFTISRDNAKNTVYLQMNSLKPEDTAVYYCAAEVTPSGYGYWGQGTQVTVSS”, which “polyreactivity (PSR sort gate)” value is on record?
Answer: low polyreactivity

Question: For “QVQLVESGGGLVQAGGSLRLSCAASGSTFRWYDMGGYRQAPGKEREFVAAITSSGGSTYYADSVKGRFTISRDNAKNTVYLQMNSLKPEYNAVYYCNRRYQPYSYDYWGQGTQVTVSS”, which “polyreactivity (PSR sort gate)” value is on record?
Answer: high polyreactivity

Question: Which “polyreactivity (PSR sort gate)” value does the source give for “QVQLVESGGGLVQAGGSLRLSCAASGGIFGGYAMGWYRQAPGKDREFVAAISRRGGSTYYADSVKGRFTISRDNAKNTVYLQMNSLKPEDTAVYYCAADRYPSLYDYWGQGTQVTVSS” here?
Answer: high polyreactivity

Question: For “QVQLLESGGGLVQAGGSLRLSCAASGNTYPVNARGWYRQAPGKERDLVAAISRTGASTYYADSVKGRFTISRDNAKNTVYLQMNSLIPEDTAVYYCAKYLKTPHNRRRVEALGYWGQGTQVTVSS”, which “polyreactivity (PSR sort gate)” value is on record?
Answer: high polyreactivity

Question: With “QVQLVESGGGLDQAGGSLRLSCAASGRTFRYYAMGWDRQAPGKERELVAAITGSGGSTYYADSVKGRFTISRDIAKNTVYLQMNSLKPEDTAVYYCATRWALRWRGGYWGQGTQVTVSS” as the sequence, how does the “polyreactivity (PSR sort gate)” value read?
Answer: high polyreactivity

Question: Which “polyreactivity (PSR sort gate)” value does the source give for “QDQLVESGGGLVQAGGSLSLSCAASGSTYDRNAMGWYIQAPGKEREMVAGISFSGGTTYYADSVKGRFTISRDNAKNTVYLQMNRLKPEDTEVYDCAASTYQPGAVPFDYWGQGSQVTVSS” here?
Answer: low polyreactivity

Question: Which “polyreactivity (PSR sort gate)” value does the source give for “QVQLVESGGGLVQAGGSLRLSCAASGNTSGHNAMGWYRQAPGKERELVADIRTGDSTNYADSVKGRFTISRDNAKNTVYLQMNSLKPEDTAVYYCAADSAYDVTSYGYWGQGTQVTVSS” here?
Answer: low polyreactivity

Question: For “QVHLVESGGGLVQAGGSLRLSCAASGFTFYRYAMGWYRQAPGKDRELVAAITWSGGSTYYADSVKGRFTISRDNAKNTVYLQMNSLKPEDTAVYYCAADIYDGGFDYWGQGTQVTVSS”, which “polyreactivity (PSR sort gate)” value is on record?
Answer: low polyreactivity

Question: Which “polyreactivity (PSR sort gate)” value does the source give for “QVQLEESRGCLVQAGGSLRLSCAASGSIFYVYAMGWYRQAPGKERELVAAINTSGGSTYADSVMGRFTISRDNAKNTVYLQMNILIPEDNAFYYCAADGYYEYTWGEYDSWGQGTQVTVSS” here?
Answer: low polyreactivity

Question: Which “polyreactivity (PSR sort gate)” value does the source give for “QVQLEESGGCLVQAGGSLRLSCAASGRIITSNDMGWYRQAPGKERELVAAISKSGGRTYYADSVKGRFTISRDNAKNTVYLQMNSLKPEDTAVYYCAKDNYWGQGTQVTVSS” here?
Answer: high polyreactivity

Question: With “QDQLVESGGGLVQAGGSLRLSCAASGRIFYPYVMGWYRQAPGKERELVAAISDSTGSTYYADSVKGRFTISRDNAKNTVYLQMNSLKPEDTAVYYWGQGTQVTVSS” as the sequence, how does the “polyreactivity (PSR sort gate)” value read?
Answer: low polyreactivity

Question: For “QVQLVESGGGLVQAGGSLRLSCAASGFIFSVYTMGWYRQAPGKERELVASITGSGGDTYYADSVKGRFTISRDNAKNTVYLQMNSLKPEDTAVYYCNVDAGFHDSYHAWNFRYDYWGQGTQVTVSS”, which “polyreactivity (PSR sort gate)” value is on record?
Answer: low polyreactivity

Question: With “QVQLVESGGGLVHAGGSLRLSCAASGRTFGIYTMGWYRQAPGKERELVASTYYADSVKGRFTISRDNAKNTVYLQMNSLKPEDTAVYYCNVERLKKSQVWYGYPNDYWGQGTQVTVSS” as the sequence, how does the “polyreactivity (PSR sort gate)” value read?
Answer: low polyreactivity

Question: Which “polyreactivity (PSR sort gate)” value does the source give for “QVQLVESGGGLVQAGGSLRLSSAPSGSTIHTYTMGWYRQAPGKDRELVAGISRSGGTTYYADSVKGRFTISRDNAKNTVYLQMNSLKPEVTAVYDCNALSSKTDTYDYWGQGTQVTVSS” here?
Answer: high polyreactivity

Question: With “QVKLEESAGGLVQSGGSLRISCAASGSTLVSNAMGWYRQAPGQERELVADNSLSGGSTYYADSVKGRFTISRDYAKNTVYLQMNSLKPEDTEVYYCARVAPSSGVRWYYYWGQGTQVTVSS” as the sequence, how does the “polyreactivity (PSR sort gate)” value read?
Answer: high polyreactivity

Question: For “QVQLVESGGGLVQAGGSLRLSCAASGRTFSGYVMGWYRQAPGKERELVATINGSGASTYYADSVKGRFTISRDNAKNTVYLQMNSLKPEDTAVYYCNKYPAHYQTRRYDYWGQGTQVTVSS”, which “polyreactivity (PSR sort gate)” value is on record?
Answer: high polyreactivity

Question: For “QVQLVESGGGLVQAGGSLRLSCAASGITFGAYAMGWDRQAPGKERELVASISSSGSTYADSVKGRFTISRDNAKTTVYLQMNSLKPEDTAVYYCNAVGFQANDYNYWRQGTQVTVSS”, which “polyreactivity (PSR sort gate)” value is on record?
Answer: low polyreactivity

Question: With “QVQLVESGGGLVQEGGSLRLICAASGRIFFYYAMGWYRQAPGKERELVAAISQSGGSTYYADSVKGRFTISRDNAKNTVYLQMNSLKPEDPAVYYCNAAEPYYDTSAVAGDYWGQGTQVTVSS” as the sequence, how does the “polyreactivity (PSR sort gate)” value read?
Answer: low polyreactivity

Question: For “QVQLVESGGGLVQAGGSLRLSCAASGIIFDSYTMGWYRQAPGKERELVAGISGSGGSTDYADSVKGRFTISRDNAKNTFYLQMNSLKPEDTAVYYCAARPTPYRDDADEYWGQGTQVTVSS”, which “polyreactivity (PSR sort gate)” value is on record?
Answer: low polyreactivity

Question: For “QVQLVESGGVLVQAGGSLRLSCAASGRIFQTYAMGWYRQAPGKERELVAAISSRGRTYYADSVKGRFTISRDNAKITVYLQMNSLKREDTAVYYCAARDWSHRPRGYDYWGQGTQVTVSS”, which “polyreactivity (PSR sort gate)” value is on record?
Answer: high polyreactivity

Question: Which “polyreactivity (PSR sort gate)” value does the source give for “QVQLVESGGGLVQAGGSLRLSCAASGRTFYYNAMGWSRQATGKERELVAAISGRAGSTYYADSVKGRYTISRDNAKNTVYLQMNSLKPEDTAVYYCNAVRYKYTGRFGYWGQGTQVTVSS” here?
Answer: high polyreactivity

Question: Which “polyreactivity (PSR sort gate)” value does the source give for “QVQLVESGGGLVQAGGSLRLSCAASGSTFAYNDMGWYRQAQGKERELVADIRSGGNTYADSVKGRFTISRDNAKNTVYLQMNSLKPVDTAVYYCAVDGGEFSSYGYWGQGTQLTVSS” here?
Answer: low polyreactivity

Question: With “QVQLVESGRGIVQAGRSLRLSCPASGRIYPNAIGWYRQAPGKEREFVAAISRSDGSTYYADSVNGRFTISRDNAKNTVYLQMNSLKPEDTAVYYCATDYRFTSRTANFDYWGQGTLVTVSS” as the sequence, how does the “polyreactivity (PSR sort gate)” value read?
Answer: low polyreactivity

Question: For “QVQLVESGGGLVQAGGSLRLSCAASGSIFDYYAMGWYRQAPGKERELVAAISWSGGSTYYADSVKGRFTISRDNAKNTVYLQMNSLKPEDTAVYYCAALSLAYHEYDYWGLGTQVTVSS”, which “polyreactivity (PSR sort gate)” value is on record?
Answer: high polyreactivity

Question: For “QVQLVESGGGLVQAGGSLRLSCAASGITFRRYTMGWYRQAPGKERELVAAISRTGGSTYYADSVKGRFTISRDNAKNTVYLQMNSLKPEDTAVYYCAARPHRYTSRHGYWGQGTQVTVSS”, which “polyreactivity (PSR sort gate)” value is on record?
Answer: high polyreactivity

Question: Which “polyreactivity (PSR sort gate)” value does the source give for “QVQLVESGGGLVQAGGSLRLSCAASGRILRHNAMGWYRQAPGKERELVAAITRSGGRTYYADSVKGRFTISRDNAKNTVYLQMNSLKPEDTAVYDCAAGDYGWVPYNLRGSRMNYWGQGTQVTVSS” here?
Answer: high polyreactivity

Question: With “QVQLVESGGGLVQAGGSLRLSCAASGLIFKWYGMGWYRQAPGKERELVAAITENGGSTYYADSVKGRFTISRDNAKNTVYLQMNSLKPEDTAVYYCAAETWADWYSEFYWGQGTQVTVSS” as the sequence, how does the “polyreactivity (PSR sort gate)” value read?
Answer: high polyreactivity

Question: For “QVQLVESGGGLVQAGGSLRLSCASSGRIFDGNAMGWYRQAPGKERELVAAISWTGGSTYYADSVKGRFTISRDNAKNTVYLQMYSLKPVDTAVYYCAADSGWWLDQWSWYDYWGLGTQVTVSS”, which “polyreactivity (PSR sort gate)” value is on record?
Answer: low polyreactivity

Question: With “QVQLQESGGGLVQAGGSLRLSCAASGSISRLDYRGWYRQASGKERELVAAIDNGSTTYYADSVKGRLTISRDNAKYTVYLQMNSLKPEDTAVYFCAAVRGRGGTHAYWGQGTQVTVSG” as the sequence, how does the “polyreactivity (PSR sort gate)” value read?
Answer: low polyreactivity

Question: With “QVQLVESGGGLVQAGGSLRLSCAASGRTFKYYAMGWYRQAPGKERELVAAITSTGGSTYYADSVKGRFTISRDNAKNTVYLQMHSLKPEDTAVYYCNRYTQYRDRSDNHWGQGTQVTVSS” as the sequence, how does the “polyreactivity (PSR sort gate)” value read?
Answer: high polyreactivity
